According to patent US20050214312A1 (ANTIGENICS, published 2005):

Biological target: T1, recombinant human or murine heat shock protein 70 (hsp70) (human or murine)
Assay: binding inhibition assay (Hill plot) against labeled reference hybrid antigen on hsp70

T1 sequence (A8K5I0 entry or part of it): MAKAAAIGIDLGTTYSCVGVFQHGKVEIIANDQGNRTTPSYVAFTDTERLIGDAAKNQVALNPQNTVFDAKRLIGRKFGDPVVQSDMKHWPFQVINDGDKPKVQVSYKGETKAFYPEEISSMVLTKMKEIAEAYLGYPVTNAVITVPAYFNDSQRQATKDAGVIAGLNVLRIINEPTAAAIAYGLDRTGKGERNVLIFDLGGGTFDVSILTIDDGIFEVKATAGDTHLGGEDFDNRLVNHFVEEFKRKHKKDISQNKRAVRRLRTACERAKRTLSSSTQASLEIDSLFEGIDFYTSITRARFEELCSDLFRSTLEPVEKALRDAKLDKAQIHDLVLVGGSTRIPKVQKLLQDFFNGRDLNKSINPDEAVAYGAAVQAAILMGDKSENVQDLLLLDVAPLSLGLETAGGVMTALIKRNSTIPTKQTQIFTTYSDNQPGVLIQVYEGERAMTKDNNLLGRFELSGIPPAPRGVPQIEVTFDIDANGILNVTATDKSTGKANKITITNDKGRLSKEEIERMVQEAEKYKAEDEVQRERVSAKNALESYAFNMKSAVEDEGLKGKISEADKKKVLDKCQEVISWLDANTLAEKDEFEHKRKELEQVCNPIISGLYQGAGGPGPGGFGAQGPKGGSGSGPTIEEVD

Row | Binder | Kd [nM]
1 | NLLRLTGWFFRKSIINFEKL | 2200
2 | NLLRLTGWRKSIINFEKL | 800
3 | NLLRLTGWGSGSIINFEKL | 1600
4 | SIINFEKL [SIINFEKL (ovalbumin amino acids 257-264)] | 235000

Biological target: T1, recombinant human or murine heat shock …
Assay: binding affinity for HSP70, binding inhibition assay

Row | Binder | Kd [nM]
5 | NLLRLTGWFFRKSIINFEKL | 2200
6 | NLLRLTGWFRSIINFEKL | 1500
7 | NLLRLTGWAKVLSIINFEKL | 2000
8 | NLLRLTGWQLKSIINFEKL | 400
9 | NLLRLTGWRKSIINFEKL | 800
10 | NLLRLTGWGSGSIINFEKL | 1600
